Assay results as given in US20240066131A1 (Protagonist Therapeutics, Inc., priority 2020, published 2024).
Like-named read-outs stand apart in the source and are kept apart here. Each block holds one molecule with its values, some of them ahead of it. Starred links: 1 amine or outer side, 2 acyl side, 3 side chain; linkers in the order of their positions; H or OH if unused. Non-standard residues stand in square brackets, D forms with d. Residues, ends and D or L forms follow the SMILES beside them. Groups on a side chain read outwards from the residue. *: point of attachment. C18 diacid = O=C(O)CCCCCCCCCCCCCCCCC(=O)*; Dip = N[C@H](C(=O)O)C(c1ccccc1)c1ccccc1; γGlu = O=C(O)[C@H](CCC(=O)[*:2])N[*:1]; Palmitoyl = CCCCCCCCCCCCCCCC(=O)*; β3hF = N[C@H](CC(=O)O)Cc1ccccc1; Isovaleryl = CC(C)CC(=O)*; LAc = not defined here; AEEA = NCCOCCOCC(=O)O; Ahx = NCCCCCC(=O)O

How the values were obtained:
[1] = target: ferroportin endogenously expressed on T47D cells (HTB 133, ATCC) (human) (UniProt Q9NP59); experiment: cell-based or functional assay
[2] = target: T1, human ferroportin (SLC40A1) fused in frame with GFP, stably expressed in HEK293 cells (human) (UniProt Q9NP59); experiment: cell-based or functional assay
T1 sequence (looked up): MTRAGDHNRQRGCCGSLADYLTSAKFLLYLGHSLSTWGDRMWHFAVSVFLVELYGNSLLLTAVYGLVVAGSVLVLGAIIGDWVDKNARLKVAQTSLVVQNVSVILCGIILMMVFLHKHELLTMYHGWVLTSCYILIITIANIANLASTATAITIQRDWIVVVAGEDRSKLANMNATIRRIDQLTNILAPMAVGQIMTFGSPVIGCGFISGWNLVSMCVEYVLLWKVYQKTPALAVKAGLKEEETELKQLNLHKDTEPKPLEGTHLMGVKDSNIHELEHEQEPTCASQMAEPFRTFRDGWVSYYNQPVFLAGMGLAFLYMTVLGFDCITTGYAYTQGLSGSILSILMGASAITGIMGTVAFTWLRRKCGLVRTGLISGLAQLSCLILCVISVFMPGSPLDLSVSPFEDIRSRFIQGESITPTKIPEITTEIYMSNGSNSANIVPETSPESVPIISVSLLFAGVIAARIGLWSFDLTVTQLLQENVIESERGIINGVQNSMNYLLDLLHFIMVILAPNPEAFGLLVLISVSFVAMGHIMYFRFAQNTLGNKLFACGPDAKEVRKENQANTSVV

ferroportin [3] = target: T2, ferroportin (Homo sapiens, UniProt Q9NP59); experiment: T47D cell-based ferroportin internalization assay in presence of mouse serum albumin (MSA), AF647 detection peptide, flow cytometry; set-up: a human breast carcinoma adherent cell line which endogenously expresses ferroportin; host or cells: T47D; conditions: second Table 6D, T47D/MSA data; with mouse serum albumin
T2 sequence (Q9NP59 1-571): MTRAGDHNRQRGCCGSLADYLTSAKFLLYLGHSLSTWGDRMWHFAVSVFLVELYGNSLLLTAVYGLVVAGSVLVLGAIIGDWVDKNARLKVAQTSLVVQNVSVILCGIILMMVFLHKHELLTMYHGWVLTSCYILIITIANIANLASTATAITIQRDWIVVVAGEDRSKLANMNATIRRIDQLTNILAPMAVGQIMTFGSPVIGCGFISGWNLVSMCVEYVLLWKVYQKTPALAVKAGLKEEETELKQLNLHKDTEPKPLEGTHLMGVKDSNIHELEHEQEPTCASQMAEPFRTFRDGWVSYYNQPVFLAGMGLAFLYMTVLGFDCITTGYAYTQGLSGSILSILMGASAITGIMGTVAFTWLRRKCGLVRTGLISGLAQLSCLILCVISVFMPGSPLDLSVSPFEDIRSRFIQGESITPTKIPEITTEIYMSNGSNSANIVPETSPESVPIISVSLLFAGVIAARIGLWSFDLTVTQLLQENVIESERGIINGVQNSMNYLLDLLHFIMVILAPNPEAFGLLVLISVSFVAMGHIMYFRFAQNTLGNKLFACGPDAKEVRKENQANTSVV
Procedure: The potency of the peptides in causing ferroportin internalization was evaluated in a T47D cell-based assay. […] In this internalization assay, the potency of the test peptides was evaluated in presence of serum albumin which is the main protein component in the blood. T47D cells were maintained in RPMI media (containing required amount of fetal bovine serum) and regularly sub-cultured. […] The test peptide dilution series were allowed to incubate at room temperature for 30 min. Then the media was aspirated from the 96-well cell plate and test peptide dilution series were added. After 1 hr incubation, the media with test peptides was aspirated out and A1F647-conjugated detection peptide was added at fixed concentration of 200 nM. […] The cells were washed again after a 2 hr incubation in preparation for flow cytometry analysis. The Median Fluorescence Intensity (MFI) of the AF647-positive population was measured (after removing dead cells and non-singlets from the analysis). The MFI values were used to generate a dose-response curve and obtain IC50 potencies for the test peptides. The IC50 potencies were calculated by using 4-parameter non-linear fitting function in Graphpad Prism (Table 6D).

ferroportin [4] = target: T2, ferroportin; experiment: FPN activity assay: internalization/degradation of ferroportin-GFP in stably transfected HEK293 cells (loss of GFP fluorescence); format: cell-based; conditions: Table 6A; read-out: FPN EC50
Procedure: Following internalization, the ferroporin protein is degraded.
A retro inverse peptide is a peptide with a reversed sequence in all D amino acids. An example is that Hy-Glu-Thr-His-NH2 becomes Hy-DHis-DThr-DGlu-NH2. The EC50 of these reference compounds for ferroportin internalization/degradation was determined according to the FPN activity assay described above. These peptides served as control standards.

[5] = target: T3, human ferroportin (SLC40A1) fused in frame with GFP, stably expressed in HEK293 cells (human, UniProt Q9NP59 1-571); experiment: cell-based or functional assay
T3 sequence (looked up): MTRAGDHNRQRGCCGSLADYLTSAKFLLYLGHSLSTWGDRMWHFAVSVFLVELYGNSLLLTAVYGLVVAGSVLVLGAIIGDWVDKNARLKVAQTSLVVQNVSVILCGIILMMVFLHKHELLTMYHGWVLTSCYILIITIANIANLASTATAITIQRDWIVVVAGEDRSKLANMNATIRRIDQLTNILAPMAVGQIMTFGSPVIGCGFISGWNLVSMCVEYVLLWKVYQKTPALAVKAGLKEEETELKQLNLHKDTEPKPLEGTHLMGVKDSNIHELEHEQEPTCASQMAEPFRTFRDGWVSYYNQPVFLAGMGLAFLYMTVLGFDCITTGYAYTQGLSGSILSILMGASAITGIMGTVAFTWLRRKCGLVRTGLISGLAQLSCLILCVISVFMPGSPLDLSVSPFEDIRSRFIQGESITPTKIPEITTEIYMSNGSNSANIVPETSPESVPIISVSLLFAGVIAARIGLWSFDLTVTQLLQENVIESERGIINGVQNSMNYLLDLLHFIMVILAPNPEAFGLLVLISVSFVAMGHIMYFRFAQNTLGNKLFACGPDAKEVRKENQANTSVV

[6] = target: T4, ferroportin endogenously expressed on T47D cells (HTB 133, ATCC) (human, UniProt Q9NP59 1-571); experiment: cell-based or functional assay
T4 sequence (looked up): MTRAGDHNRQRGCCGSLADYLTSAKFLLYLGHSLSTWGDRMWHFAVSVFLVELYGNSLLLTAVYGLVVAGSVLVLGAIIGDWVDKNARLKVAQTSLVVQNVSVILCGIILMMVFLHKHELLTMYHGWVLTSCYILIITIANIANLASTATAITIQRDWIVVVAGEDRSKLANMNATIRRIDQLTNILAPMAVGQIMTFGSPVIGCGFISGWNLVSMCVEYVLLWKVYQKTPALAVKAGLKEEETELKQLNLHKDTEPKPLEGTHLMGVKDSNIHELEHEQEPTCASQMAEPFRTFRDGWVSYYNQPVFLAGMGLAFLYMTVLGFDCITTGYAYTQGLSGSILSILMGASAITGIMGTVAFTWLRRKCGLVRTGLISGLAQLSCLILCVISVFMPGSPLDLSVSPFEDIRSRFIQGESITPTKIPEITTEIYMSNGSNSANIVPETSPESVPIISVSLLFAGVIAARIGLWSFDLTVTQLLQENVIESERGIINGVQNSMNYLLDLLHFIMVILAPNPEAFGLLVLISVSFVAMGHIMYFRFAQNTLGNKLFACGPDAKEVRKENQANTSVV

[7] = target: T1, human ferroportin (SLC40A1) fused in frame with GFP, stably expressed in HEK293 cells (human); experiment: cell-based or functional assay; remark: listed apart in the source
[8] = target: T3, human ferroportin (SLC40A1) fused in …; experiment: cell-based or functional assay; remark: listed apart in the source
[9] = target: T4, ferroportin endogenously expressed on …; experiment: cell-based or functional assay; remark: listed apart in the source

- Potency EC50 (nM) [2]: > 10000 nM
Molecule: RI-Mini Hepcidin: Hy-DPhe-DIle-DCys-DIle-DPro-DPhe-DHis-DThr-DAsp-NH2 (peptide)

- IC50 (ferroportin [3]): 13.3 nM
Molecule: CCCCCCCCCCCCCCCC(=O)N[C@@H](CCC(=O)NCCCC[C@H](NC(=O)[C@@H](NC(=O)[C@H](C)NC(=O)[C@@H]1CCCN1C(=O)[C@@H](NC(=O)[C@H](Cc1c[nH]cn1)NC(=O)[C@@H](NC(=O)[C@H](CCC(=O)O)NC(=O)CC(C)C)[C@@H](C)O)C(c1ccccc1)c1ccccc1)[C@@H](C)CC)C(=O)N[C@H](CC(=O)N[C@H](CCCCN)C(N)=O)Cc1ccccc1)C(=O)O [compound 131] (Isovaleryl-ETH[Dip]PAIK([γGlu-Palmitoyl])[β3hF][dK]-NH2)

- IC50 (ferroportin [3]): 11.4 nM
Molecule: CCCCCCCCCCCCCCCC(=O)NCCCCCC(=O)NCCCC[C@H](NC(=O)[C@@H](NC(=O)[C@H](C)NC(=O)[C@@H]1CCCN1C(=O)[C@H](Cc1ccccc1)NC(=O)[C@H](Cc1c[nH]cn1)NC(=O)[C@@H](NC(=O)[C@H](CCC(=O)O)NC(=O)CC(C)C)[C@@H](C)O)[C@@H](C)CC)C(=O)N[C@@H](Cc1ccccc1)C(=O)N[C@@H](CCC(=O)O)C(=O)N1CCC[C@H]1C(=O)N[C@@H](CCCNC(=N)N)C(=O)N[C@@H](CO)C(=O)N[C@@H](CCCCN)C(=O)NCC(=O)N[C@@H](C)C(=O)N[C@@H](CCCCN)C(N)=O [compound 81] (Isovaleryl-ETHFPAIK([Ahx-Palmitoyl])FEPRSKGAK-NH2)

- DC50 (ferroportin [4]): 150 nM
- IC50 (ferroportin [3]): 143 nM
Molecule: CC[C@H](C)[C@H](NC(=O)[C@H](C)NC(=O)[C@@H]1CCCN1C(=O)[C@@H](NC(=O)[C@H](Cc1c[nH]cn1)NC(=O)[C@@H](NC(=O)[C@H](CCC(=O)O)NC(=O)CC(C)C)[C@@H](C)O)C(c1ccccc1)c1ccccc1)C(=O)N[C@@H](CCCCNC(=O)COCCOCCNC(=O)COCCOCCNC(=O)CCCCCNC(=O)CCCCCCCCCCCCCCCCC(=O)O)C(=O)N[C@H](CC(N)=O)Cc1ccccc1 [compound 76] (Isovaleryl-ETH[Dip]PAIK([AEEA-AEEA-Ahx-C18 diacid])[β3hF]-NH2)

- FPN IC50 [5]: 27.5 nM
- T47D IC50 [6]: 284 nM
Molecule: Isovaleryl-K(LAc)TH[Dip]PAIK([Ahx-Palmitoyl])[β3hF]-NH2 (reading uncertain) [Isovaleric Acid-[Lys(LAc-T-H-[Dpa]-P-A-I-[Lys(Ahx_Palm)]-[bhPhe]-NH2]

- Potency EC50 [7]: 712 nM
Molecule: H-DTHFPICIF-NH2 (peptide, from a related filing) [Mini-Hepcidin 1-9: Hy-…-NH2]

Continued, molecule first:

Molecule: Isovaleric Acid-Dap-T-H-[Dpa]-P-A-I-E-[bhPhe]-[Lys(Ahx_Palm)]-R-NH2 (peptide)
- T47D MSA IC50 [1]: 36.4 nM

Molecule: Isovaleric Acid-K-T-H-[Dpa]-P-E-[bhPhe]-[Lys(Ahx_Palm)]-NH2 (peptide)
- T47D MSA IC50 [1]: 15.6 nM

Molecule: Isovaleric Acid-K-T-H-[Dpa]-P-E-[Lys(Ahx_Palm)]-NH2 (peptide)
- T47D MSA IC50 [1]: 101 nM

Molecule: Isovaleryl-ETH[Dip]K([Ahx-Palmitoyl])-N_Butyl_Phe [Isovaleric Acid-E-T-H-[Dpa]-[Lys(Ahx_Palm)]-N_Butyl_Phe]
- FPN IC50 [5]: 62.2 nM
- T47D IC50 [6]: 464 nM

Molecule: Isovaleryl-K(Glu)TH[Dip]PAIK([Ahx-Palmitoyl])[β3hF]-NH2 [Isovaleric Acid-[Lys(Glu-T-H-[Dpa]-P-A-I-[Lys(Ahx_Palm)]-[bhPhe]-NH2]
- FPN IC50 [5]: 27 nM
- T47D IC50 [6]: 229 nM

Molecule: Isovaleryl-ETH[Dip]PK(Gal)IK([Ahx-Palmitoyl])[β3hF]-NH2 [Isovaleric Acid-E-T-H-[Dpa]-P-[Lys(Gal-I-[Lys(Ahx_Palm)]-[bhPhe]-NH2]
- FPN IC50 [8]: 14.3 nM
- T47D IC50 [9]: 35.5 nM

Molecule: Isovaleryl-ETH[Dip]PA[dK](Gal)K([Ahx-Palmitoyl])[β3hF]-NH2 [Isovaleric Acid-E-T-H-[Dpa]-P-A-d[Lys(Gal-[Lys(Ahx_Palm)]-[bhPhe]-NH2]
- FPN IC50 [8]: 30.6 nM
- T47D IC50 [9]: 4.05 nM

Molecule: Isovaleryl-ETH[Dip]PAK(Gal)K([Ahx-Palmitoyl])[β3hF]-NH2 [Isovaleric Acid-E-T-H-[Dpa]-P-A-[Lys(Gal-[Lys(Ahx_Palm)]-[bhPhe]-NH2]
- FPN IC50 [8]: 42 nM
- T47D IC50 [9]: 19.1 nM
